The source of these data is patent US5538946A, “Hirudin derivatives with delayed action” (Hoechst Aktiengesellschaft, priority 1988, dated 1996).

This assay addresses thrombin (Homo sapiens, UniProt P00734). Nature of the assay: In vitro thrombin inhibition assay (coagulation time) as in Example 2, with re-use of isolated Sepharose-hirudin. In kind it is biochemical. Particulars: isolated from treated plasma, washed with 1 to 1.5 M NaCl, employed again. The method, then:
Female and male Wistar rats with a body weight of about 300 g are anesthetized with ethylurethane (1.5 g/kg i.p.). 1000 AT-U/kg of a hirudin derivative or authentic `Leu-Thr-hirudin`, which has been dissolved in physiological saline, are administered i.v. to the rats. A catheter is implanted in the carotid of the animals for blood sampling. Blood is taken from the animals and treated with citrate for the determination of anti-thrombin activity. 0.1 ml of the blood treated in this way is mixed with 0.2 ml of Tris/HCl buffer (0.1 mol/1; pH 7.4) and preincubated at 37° C. After addition of 0.1 ml of a thrombin solution (10 NIH-U/ml) the coagulation time is determined using a Schnitger and Gross coagulometer. In parallel with the experiment a calibration plot is constructed using reference plasma, from which the particular plasma hirudin or plasma hirudin derivative concentration is read off.
The protein coupling yield is 5 %. The biological activity is determined in vitro as in Example 2. The Sepharose-hirudin is isolated from the treated plasma, washed with a 1 to 1.5 M NaCl solution and again employed in the inhibition assay.

Consider “Sepharose-hirudin: hirudin immobilised on activated CH-Sepharose 4 B (Pharmacia)”, for which the “measured activity on re-use in the inhibition assay” value is on record as “within the limit of error of the first measurement”.
